Measurements from the Immune Epitope Database (IEDB).

Legend:
[1] = molecular target: HLA-B*40:01; assay: IEDB peptide-MHC binding, purified MHC/competitive/radioactivity; filed as Kd, often an IC50 or EC50 that approximates it; ≥ and ≤ were set here for values at or beyond the usual limits of such assays
[2] = molecular target: HLA-B*44:03; assay: as above; conditions: source organism: Dengue virus 1 Brazil/97-11/1997
[3] = molecular target: HLA-A*26:01; assay: IEDB peptide-MHC binding, purified MHC/direct/fluorescence; filed as Kd, often an IC50 or EC50 that approximates it; ≥ and ≤ were set here for values at or beyond the usual limits of such assays
[4] = molecular target: HLA-B*08:01; assay: as above
[5] = molecular target: HLA-A*03:01; assay: as above
[6] = molecular target: HLA-A*02:01; assay: as above
[7] = molecular target: HLA-A*31:01; assay: as above
[8] = molecular target: HLA-B*58:01; assay: as above
[9] = molecular target: HLA-A*69:01; assay: as above
[10] = molecular target: HLA-B*40:01; assay: as above
[11] = molecular target: HLA-B*27:05; assay: as above
[12] = molecular target: HLA-A*11:01; assay: as above
[13] = molecular target: HLA-B*07:02; assay: as above
[14] = molecular target: HLA-B*15:01; assay: as above
[15] = molecular target: HLA-B*15:17; assay: IEDB peptide-MHC binding, purified MHC/competitive/fluorescence; filed as Kd, often an IC50 or EC50 that approximates it; ≥ and ≤ were set here for values at or beyond the usual limits of such assays
[16] = molecular target: HLA-A*01:01; assay: IEDB peptide-MHC binding, purified MHC/direct/fluorescence; filed as Kd, often an IC50 or EC50 that approximates it; ≥ and ≤ were set here for values at or beyond the usual limits of such assays; conditions: source organism: Comamonas sediminis
[17] = molecular target: HLA-A*26:01; assay: IEDB peptide-MHC binding, purified MHC/competitive/radioactivity; filed as Kd, often an IC50 or EC50 that approximates it; ≥ and ≤ were set here for values at or beyond the usual limits of such assays
[18] = molecular target: HLA-A*01:01; assay: as above
[19] = molecular target: HLA-A*23:01; assay: as above
[20] = molecular target: HLA-A*30:02; assay: as above
[21] = molecular target: HLA-A*29:02; assay: as above
[22] = molecular target: HLA-A*24:02; assay: as above
[23] = molecular target: HLA-A*32:01; assay: as above; conditions: source organism: Mammarenavirus brazilense
[24] = molecular target: HLA-A*30:01; assay: as above; conditions: source organism: Mammarenavirus brazilense
[25] = molecular target: HLA-B*15:01; assay: IEDB peptide-MHC binding, purified MHC/competitive/fluorescence; filed as Kd, often an IC50 or EC50 that approximates it; ≥ and ≤ were set here for values at or beyond the usual limits of such assays; conditions: source organism: Bacillus anthracis str. A0488
[26] = source organism: Dengue virus 1 Brazil/97-11/1997
[27] = source organism: Corynebacterium efficiens
[28] = source organism: Corynebacterium glutamicum
[29] = source organism: Comamonas sediminis
[30] = source organism: SARS coronavirus Tor2
[31] = source organism: Dengue virus 2 Jamaica/1409/1983
[32] = source organism: Mammarenavirus brazilense
[33] = source organism: Lassa virus Josiah
[34] = source organism: Mammarenavirus lassaense

**Q.** Which Kd ([1]; source organism: Dengue virus 3 Martinique/1243/1999) does the source give for KEEESEGAI here?
**A.** The Kd was 0.0464 µM.

**Q.** With TEHGTTATI as the sequence, how does the Kd ([1]; source organism: Dengue virus 1 Nauru/West Pac/1974) read?
**A.** Its Kd is 0.0571 µM.

**Q.** IEEGRTLRVL was tested. Which Kd [1, 26] did it give?
**A.** Its Kd is 0.0718 µM.

**Q.** Which results are given for GEVDSFSLGI?
**A.** Kd [2]: 0.0194 µM; Kd [1, 26]: 0.0567 µM

**Q.** Which Kd [3, 27] does the source give for ITWETPMIW here?
**A.** The Kd was at least 20 µM.

**Q.** What about the Kd [4, 27] of the same sequence?
**A.** The Kd was at least 20 µM.

**Q.** What about the Kd [5, 27] of the same sequence?
**A.** The Kd was at least 20 µM.

**Q.** What about the Kd [6, 27] of the same sequence?
**A.** Its Kd is at least 20 µM.

**Q.** What about the Kd [7, 27] of the same sequence?
**A.** The Kd was at least 20 µM.

**Q.** And the Kd [8, 28]?
**A.** The Kd was 0.00443 µM.

**Q.** And the Kd [9, 28]?
**A.** The Kd was 0.507 µM.

**Q.** And the Kd [10, 27]?
**A.** Its Kd is at least 20 µM.

**Q.** And the Kd [11, 27]?
**A.** The Kd was at least 20 µM.

**Q.** And the Kd [12, 27]?
**A.** Its Kd is at least 20 µM.

**Q.** And the Kd [13, 27]?
**A.** Its Kd is at least 20 µM.

**Q.** What about the Kd [14, 27] of the same sequence?
**A.** Its Kd is at least 20 µM.

**Q.** And the Kd [15, 28]?
**A.** Its Kd is at most 0.001 µM.

**Q.** How did the Kd [3, 29] turn out when KSLGIDQIW was run?
**A.** Its Kd is at least 20 µM.

**Q.** What about the Kd [16] of the same sequence?
**A.** Its Kd is at least 20 µM.

**Q.** And the Kd [4, 29]?
**A.** Its Kd is at least 20 µM.

**Q.** And the Kd [5, 29]?
**A.** Its Kd is at least 20 µM.

**Q.** And the Kd [6, 29]?
**A.** Its Kd is at least 20 µM.

**Q.** What about the Kd [7, 29] of the same sequence?
**A.** Its Kd is 4.66 µM.

**Q.** What about the Kd [8, 29] of the same sequence?
**A.** The Kd was 0.00829 µM.

**Q.** What about the Kd [9, 29] of the same sequence?
**A.** The Kd was at least 20 µM.

**Q.** And the Kd [10, 29]?
**A.** The Kd was at least 20 µM.

**Q.** What about the Kd [11, 29] of the same sequence?
**A.** The Kd was at least 20 µM.

**Q.** What about the Kd [12, 29] of the same sequence?
**A.** Its Kd is at least 20 µM.

**Q.** And the Kd [13, 29]?
**A.** The Kd was at least 20 µM.

**Q.** And the Kd [14, 29]?
**A.** Its Kd is 1.77 µM.

**Q.** And the Kd [15, 29]?
**A.** Its Kd is 0.00135 µM.

**Q.** For NAAISDYDYY, which Kd [17, 30] is on record?
**A.** The Kd was 1.64 µM.

**Q.** What about the Kd [18, 30] of the same sequence?
**A.** The Kd was 0.0124 µM.

**Q.** And the Kd [19, 30]?
**A.** The Kd was at least 70 µM.

**Q.** What about the Kd [20, 30] of the same sequence?
**A.** Its Kd is 0.274 µM.

**Q.** And the Kd [21, 30]?
**A.** Its Kd is 0.688 µM.

**Q.** And the Kd [22, 30]?
**A.** Its Kd is at least 70.3 µM.

**Q.** Which Kd [17, 30] does the source give for YYCKSHKPPI here?
**A.** Its Kd is at least 69.7 µM.

**Q.** What about the Kd [18, 30] of the same sequence?
**A.** The Kd was at least 48.3 µM.

**Q.** What about the Kd [19, 30] of the same sequence?
**A.** The Kd was 0.207 µM.

**Q.** And the Kd [20, 30]?
**A.** Its Kd is 11.5 µM.

**Q.** What about the Kd [21, 30] of the same sequence?
**A.** The Kd was 1.62 µM.

**Q.** And the Kd [22, 30]?
**A.** Its Kd is 0.193 µM.

**Q.** TEIQMSSGNL was tested. Which Kd [1, 31] did it give?
**A.** The Kd was 0.00703 µM.

**Q.** With GEEVQVLAL as the sequence, how does the Kd [1, 31] read?
**A.** The Kd was 0.00309 µM.

**Q.** GYKETPFLTI was tested. Which Kd [19, 32] did it give?
**A.** The Kd was 0.139 µM.

**Q.** And the Kd [21, 32]?
**A.** The Kd was 0.108 µM.

**Q.** And the Kd [22, 32]?
**A.** The Kd was 0.159 µM.

**Q.** Which results are given for FFASFYYIW?
**A.** Kd [17, 30]: ≥ 26.2 µM; Kd [18, 30]: ≥ 37.6 µM; Kd [19, 30]: 0.176 µM; Kd [20, 30]: ≥ 67.1 µM; Kd [21, 30]: 0.0945 µM; Kd [22, 30]: 0.0209 µM

**Q.** IENTTANISL was tested. Which Kd [1, 26] did it give?
**A.** The Kd was 0.00315 µM.

**Q.** For TEWCCRSCTL, which Kd [1, 31] is on record?
**A.** The Kd was 0.00995 µM.

**Q.** Which results are given for DTGNYILCY?
**A.** Kd [17, 32]: 5.73 µM; Kd [18, 32]: 0.273 µM; Kd [23]: ≥ 24.8 µM; Kd [24]: 2.44 µM; Kd [20, 32]: 18 µM; Kd [21, 32]: 1.41 µM

**Q.** KTSVDCNMY was tested. Which Kd [17, 30] did it give?
**A.** The Kd was at least 81.5 µM.

**Q.** What about the Kd [18, 30] of the same sequence?
**A.** Its Kd is 0.0986 µM.

**Q.** What about the Kd [19, 30] of the same sequence?
**A.** The Kd was at least 77.8 µM.

**Q.** And the Kd [20, 30]?
**A.** Its Kd is 0.00266 µM.

**Q.** What about the Kd [21, 30] of the same sequence?
**A.** The Kd was 2.72 µM.

**Q.** What about the Kd [22, 30] of the same sequence?
**A.** The Kd was at least 77.6 µM.

**Q.** With AEVRPVVSY as the sequence, how does the Kd [25] read?
**A.** The Kd was 0.0735 µM.

**Q.** What does the source list for YYPSARIVY?
**A.** Kd [17, 30]: 1.37 µM; Kd [18, 30]: ≥ 45.5 µM; Kd [19, 30]: ≥ 84.5 µM; Kd [20, 30]: ≥ 78.9 µM; Kd [21, 30]: ≥ 88.2 µM; Kd [22, 30]: ≥ 105 µM

**Q.** Which Kd [17, 33] does the source give for SCDFNGGKI here?
**A.** The Kd was at least 77.9 µM.

**Q.** What about the Kd [18, 33] of the same sequence?
**A.** The Kd was at least 23.2 µM.

**Q.** And the Kd [19, 33]?
**A.** Its Kd is at least 77.7 µM.

**Q.** What about the Kd [20, 33] of the same sequence?
**A.** Its Kd is at least 76.9 µM.

**Q.** And the Kd [21, 33]?
**A.** Its Kd is at least 78.9 µM.

**Q.** What about the Kd [22, 33] of the same sequence?
**A.** Its Kd is at least 77.5 µM.

**Q.** For HDLMMGYAWI, which Kd [17, 34] is on record?
**A.** Its Kd is at least 69.7 µM.

**Q.** What about the Kd [18, 34] of the same sequence?
**A.** Its Kd is at least 51 µM.

**Q.** What about the Kd [19, 34] of the same sequence?
**A.** The Kd was 8.22 µM.

**Q.** What about the Kd [20, 34] of the same sequence?
**A.** Its Kd is 19.2 µM.

**Q.** What about the Kd [21, 34] of the same sequence?
**A.** The Kd was at least 63.9 µM.

**Q.** What about the Kd [22, 34] of the same sequence?
**A.** The Kd was at least 40.1 µM.

**Q.** With LFTKFFYLL as the sequence, how does the Kd [17, 30] read?
**A.** The Kd was at least 38.1 µM.

**Q.** What about the Kd [18, 30] of the same sequence?
**A.** Its Kd is at least 78.1 µM.

**Q.** What about the Kd [19, 30] of the same sequence?
**A.** The Kd was 0.154 µM.

**Q.** What about the Kd [20, 30] of the same sequence?
**A.** Its Kd is at least 83.3 µM.

**Q.** And the Kd [21, 30]?
**A.** Its Kd is 6.96 µM.

**Q.** What about the Kd [22, 30] of the same sequence?
**A.** The Kd was 0.11 µM.
